In assay [1] the target is T1, Human RNF43 ECD with Fc region fused on its C-terminus (human).
T1 construct: also called RNF43-Fc
T1 chain: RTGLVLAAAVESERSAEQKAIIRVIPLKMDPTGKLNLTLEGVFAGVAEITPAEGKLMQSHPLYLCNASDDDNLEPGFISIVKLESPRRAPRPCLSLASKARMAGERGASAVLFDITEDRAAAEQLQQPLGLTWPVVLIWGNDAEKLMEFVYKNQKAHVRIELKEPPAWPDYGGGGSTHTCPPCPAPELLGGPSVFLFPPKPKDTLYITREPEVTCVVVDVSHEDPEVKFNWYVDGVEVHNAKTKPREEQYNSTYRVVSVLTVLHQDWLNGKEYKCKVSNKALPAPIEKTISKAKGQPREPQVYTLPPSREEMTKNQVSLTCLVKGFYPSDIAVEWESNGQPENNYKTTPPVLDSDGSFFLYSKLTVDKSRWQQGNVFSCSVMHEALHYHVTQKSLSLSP
The assay is described as follows: competition ELISA on coated RNF43-Fc; first antibody unlabelled at 10x its EC50, second (reference) antibody biotinylated RNN0187jj at its EC50. On the procedure: (§1) EC50 concentration for the binding of each anti-RNF43 monospecific antibody to RNF43-Fc (described in Example 2) was first determined by ELISA assay, using the biotinylated antibodies. In brief, RNF43-Fc at 5 micro g/mL or 1 micro g/mL was coated on Maxisorp plate (NUNC) at 4 degrees C. overnight. The coated plate was then washed with PBS-T, followed by blocking with Blocking One solution (Nacalai Tesque) for 2 hours at room temperature. Serially diluted, biotinylated anti-RNF43 monospecific antibody was then added and incubated for 1 hour at room temperature. After washing with PBS-T, StAv-HRP (PIERCE) was added and incubated for 1 hour at room temperature. After washing with PBS-T, ABTS Peroxidase substrate (SeraCare Life Sciences) was added and signal intensity was measured using Multiskan™ GO Microplate Spectrophotometer. EC50 concentration for the binding of the anti-RNF43 monospecific antibody to RNF43-Fc was calculated using Non-linear regression 4-parameter fit. The normalized absorbance at 405 nm/570 nm measured when EC50 concentration of anti-RNF43 antibodies was applied is denoted as AO.
(§2) To evaluate binding competition between the anti-RNF43 monospecific antibodies, ELISA assay with similar setting was conducted. RNF43-Fc was first coated in Maxisorp plate overnight. […] After washing with PBS-T, ABTS Peroxidase substrate was added and signal intensity was measured using Multiskan™ GO Microplate Spectrophotometer. The normalized absorbance at 405 nm/570 nm is denoted as A.

In assay [2] the target is T1, Human RNF43 ECD with Fc region fused on …. The assay is described as follows: competition ELISA on coated RNF43-Fc; first antibody unlabelled at 10x its EC50, second (reference) antibody biotinylated RNN0192nn at its EC50. On the procedure:
as §1, §2
(In general: In an ELISA, binding on a coated surface is turned into a signal by an enzyme label.)

Assay [3] shares this target. The assay is described as follows: competition ELISA on coated RNF43-Fc; first antibody unlabelled at 10x its EC50, second (reference) antibody biotinylated RNN0193jj at its EC50. On the procedure: as §1, §2
For assay [4] the target is unchanged. The assay is described as follows: competition ELISA on coated RNF43-Fc; first antibody unlabelled at 10x its EC50, second (reference) antibody biotinylated RNN0207ii at its EC50. On the procedure: as §1, §2
Assay [5] shares this target. The assay is described as follows: competition ELISA on coated RNF43-Fc; first antibody unlabelled at 10x its EC50, second (reference) antibody biotinylated RNN0242nn at its EC50. On the procedure:
as §1, §2

For assay [6] the target is unchanged. The assay is described as follows: competition ELISA on coated RNF43-Fc; first antibody unlabelled at 10x its EC50, second (reference) antibody biotinylated RNN0246jj at its EC50. The method, then:
as §1, §2

B1: RNN0246jj with rabbit constant region (antibody)
heavy: QSVEESGGRLVTPDETLTLTCTVSGFSLNNYHMIWVRQAPGEGLEYIGFINTGGSAYYANWAKGRFTISKTSTTVDLKITSPTTEDTATYFCASVSWRTDYSFELWGPGTLVTVSSGQPKAPSVFPLAPCCGDTPSSTVTLGCLVKGYLPEPVTVTWNSGTLTNGVRTFPSVRQSSGLYSLSSVVSVTSSSQPVTCNVAHPATNTKVDKTVAPSTCSKPMCPPPELLGGPSVFIFPPKPKDTLMISRTPEVTCVVVDVSQDDPEVQFTWYINNEQVRTARPPLREQQFNSTIRVVSTLPIAHQDWLRGKEFKCKVHNKALPAPIEKTISKARGQPLEPKVYTMGPPREELSSRSVSLTCMINGFYPSDISVEWEKNGKAEDNYKTTPTVLDSDGSYFLYSKLSVPTSEWQRGDVFTCSVMHEALHNHYTQKSISRSPGK
light: AQVLTQTPSPVSAAVGGTVTISCQASQSVYANNRLAWFQQKPGQPPKLLIYSASTLASGVPSRFKGSGSGTQFTLTISGVQCDDAATYYCAGAYTGNIYTFGGGTKVEIKRDPVAPTVLIFPPAADQVATGTVTIVCVANKYFPDVTVTWEVDGTTQTTGIENSKTPQNSADCTYNLSSTLTLTSTQYNSHKEYTCKVTQGTTSVVQSFNRGDC
As to B1, the “binding inhibition (%)” value is 12.6% in assay [1]; -0.13% in assay [2]; 1.17% in assay [3]; -0.14% in assay [4]; 22.6% in assay [5]; 29.8% in assay [6].

B2: RNN0242nn with rabbit constant region (antibody)
heavy: QQQLEEYGGDLVQPEGSLTLTCKASGLDFSSSYWMCWVRQAPGKGLEWIACIYTGSSGSTSYASWAKGRFTISKTSSTTVTLQMTSLTAADTATYFCARDYDYTAYAYGIMSLWGPGTLVTVSSGQPKAPSVFPLAPCCGDTPSSTVTLGCLVKGYLPEPVTVTWNSGTLTNGVRTFPSVRQSSGLYSLSSVVSVTSSSQPVTCNVAHPATNTKVDKTVAPSTCSKPMCPPPELLGGPSVFIFPPKPKDTLMISRTPEVTCVVVDVSQDDPEVQFTWYINNEQVRTARPPLREQQFNSTIRVVSTLPIAHQDWLRGKEFKCKVHNKALPAPIEKTISKARGQPLEPKVYTMGPPREELSSRSVSLTCMINGFYPSDISVEWEKNGKAEDNYKTTPTVLDSDGSYFLYSKLSVPTSEWQRGDVFTCSVMHEALHNHYTQKSISRSPGK
light: AEIVMTQTPSSKSAAVGDTVTIKCQASQSITSYLSWYQQKPGQPPKLLIYRASTLASGVPSRFKGSGSGTQFTLTISDLECADAATYYCQSNYGSYSTNYGVTFGGGTKVEIKRDPVAPTVLIFPPAADQVATGTVTIVCVANKYFPDVTVTWEVDGTTQTTGIENSKTPQNSADCTYNLSSTLTLTSTQYNSHKEYTCKVTQGTTSVVQSFNRGDC
With B2, the “binding inhibition (%)” value in assay [1] was determined as 11.4%; in assay [2], 9.66%; in assay [3], 12.6%; in assay [4] it was 1.62%; in assay [5], 86.8%; in assay [6], 74.7%.

Source of the values: US20240239890A1 (Chugai, published 2024).
